Test results published in patent US20240317834A1, “COMPOSITIONS AND METHODS FOR NEUROLOGICAL DISEASES” (CODA BIOTHERAPEUTICS, INC., priority 2020, published 2024).

Columns and labels:
Lenti-X 293T cells = experiment: YFP fluorescence quenching anion reporter plate reader assay of engineered receptors stimulated with acetylcholine or a non-native ligand; assay type: cell-based
Procedure, shortened: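 Lenti-X 293T cells carrying a YFP anion reporter were transiently transfected with channel DNA and assayed the next day in HEPES-buffered ECS at pH 7.2. Ligand (acetylcholine or non-native ligand) was added in NaI-substituted ECS. Percent quench was the mean of the last 10 s relative to the 15 s pre-addition baseline.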

rat DRG neurons = experiment: Rheobase shift and evoked action potentials in rat DRG neurons (current clamp); assay type: cell-based
Experimental: Using whole cell manual patch clamp electrophysiology in HEK293 cells, rat DRG neurons and rat hippocampal neurons, the EC50 of the various engineered receptors disclosed herein to Ach and non-native ligands was measured using the Hill equation with peak current measurements from escalating doses of ligand. The rheobase shift was also measured in rat DRG neurons, which reflects the efficacy of the receptors. To calculate the rheobase, first, the amount of current that can produce an action potential was determined. Then the ligand was added, followed by a step wise increase in the current injected up to 700 pA.
For manual patch clamp experiments, Cells plated on coverslips were visualized at 10× and 40× on an inverted fluorescence microscope (Olympus). Recordings were made with an Axopatch 200B amplifier and Digidata 1550B (Molecular Devices) at RT using 3-6 MOhm glass patch electrodes (Sutter, BF150-86-10). Unless otherwise stated, recordings were made in extracellular solution (ECS) containing: 140 mM sodium chloride, 4 mM potassium chloride, 1 mM magnesium chloride, 2 mM calcium chloride, 10 mM HEPES, and 10 mM D-(+)-glucose (pH=7.3 with sodium hydroxide, osmolarity=305−315 mOsm). An 8-line reservoir (AutoMate Scientific) in combination with an 8-channel zero-dead-volume perfusion pencil (AutoMate Scientific) was used for perfusion. Data was acquired using pClamp software (Molecular Devices). Traces were either analyzed in Clampfit (Molecular Devices) or using custom Python code. Plotting and statistics were performed in GraphPad Prism.
DRG rheobase experiments were performed in current clamp mode using a potassium-based internal solution containing: 100 mM potassium D-gluconate, 28 mM potassium chloride, 1 mM magnesium chloride hexahydrate, 5 mM magnesium ATP, 10 mM HEPES, and 0.5 mM EGTA (pH=7.2 with potassium hydroxide, osmolarity=290-295 mOsm, calculated liquid junction potential=−13.5 mV). To measure DRG input resistance and rheobase, 500 ms current steps (−200 pA to 700 pA) were applied the membrane in the presence and absence of a compound. No holding current was applied to the membrane for cells included in the final datasets. Data were acquired at 10 kHz, with Bessel filter at 2 kHz and series resistance compensation at 100%. Rheobase was defined as the smallest depolarizing current injection required to cause an action potential to fire in the cell. In a subset of cells, the rheobase was ambiguous, since the action potential appeared to be graded in amplitude. In these cases, a […] of the trace clarified the rheobase. Input resistance was measured from the negative current injections, calculated as the difference in membrane potential at steady state divided by the current injection amplitude and then averaged across the four negative current steps for each recording. Resting membrane potential was measured from the first 100 ms of each sweep, averaged for each recording, and corrected for liquid junction potential. One-way ANOVA with multiple comparisons was used to test for significance of difference in rheobase and input resistance between baseline, drug, and wash conditions.

B1: CODA1025: engineered chimeric LGIC receptor, R101F, L131G in SEQ ID NO: 33 (protein)
chain: MRCSPGGVWLALAASLLHVSLQGEFQRKLYKELVKNYNPLERPVANDSQPLTVYFSLSLLQIMDVDEKNQVLTTNIWLQMSWTDHYLQWNVSEYPGVKTVFFPDGQIWKPDILLYNSADERFDATFHTNVGVNSSGHCQYLPPGIFKSSCPMDLKNFPMDVQTCKLKFGSWSYGGWSLDLQMQEADISGYIPNGEWDLVGIPGKRSERFYECCKEPYPDVTFTVTMRRRMGYYLIQMYIPSLLIVILSWISFWINMDAAPARVGLGITTVLTMTTQSSGSRASLPKVSYVKAIDIWMAVCLLFVFSALLEYAAVNFVSRQHKELLRFRRKRRHHKSPMLNLFQEDEAGEGRFNFSAYGMGPACLQAKDGISVKGANNSNTTNPPPAPSKSPEEMRKLFIQRAKKIDKISRIGFPMAFLIFNMFYWIIYKIVRREDVHNQ
modifications: synthetic sequence of chimeric LGIC
Lenti-X 293T cells; 1 nM CNL001, first column
  YFP fluorescence quenching using CNL001: −18.527%
Lenti-X 293T cells; 1 nM CNL001, second column
  YFP fluorescence quenching using CNL001: −21.577%
Lenti-X 293T cells; 1 nM brd
  YFP fluorescence quenching using TC-5619/Bradanicline: −10.61%
Lenti-X 293T cells; 3 nM brd
  YFP fluorescence quenching using TC-5619/Bradanicline: 2.63%
Lenti-X 293T cells; 3 nM var, first column
  YFP fluorescence quenching using Varenicline: 48.074
Lenti-X 293T cells; 3 nM var, second column
  YFP fluorescence quenching using Varenicline: 60.978
Lenti-X 293T cells; 10 nM CNL001, first column
  YFP fluorescence quenching using CNL001: 14.063%
Lenti-X 293T cells; 10 nM CNL001, second column
  YFP fluorescence quenching using CNL001: 49.818%
Lenti-X 293T cells; 10 nM brd
  YFP fluorescence quenching using TC-5619/Bradanicline: 17.71%
Lenti-X 293T cells; 30 nM brd
  YFP fluorescence quenching using TC-5619/Bradanicline: 68.48%
Lenti-X 293T cells; 30 nM fac
  YFP fluorescence quenching using Facinicline: −8.99
Lenti-X 293T cells; 30 nM var, first column
  YFP fluorescence quenching using Varenicline: 70.023
Lenti-X 293T cells; 30 nM var, second column
  YFP fluorescence quenching using Varenicline: 69.433
Lenti-X 293T cells; 50 nM CNL001, first column
  YFP fluorescence quenching using CNL001: 77.765%
Lenti-X 293T cells; 50 nM CNL001, second column
  YFP fluorescence quenching using CNL001: 79.23%
Lenti-X 293T cells; 50 nM abt
  YFP fluorescence quenching using ABT-126: −11.53%
Lenti-X 293T cells; 100 nM CNL001, first column
  YFP fluorescence quenching using CNL001: 80.544%
Lenti-X 293T cells; 100 nM CNL001, second column
  YFP fluorescence quenching using CNL001: 80.695%
Lenti-X 293T cells; 100 nM CNL002
  YFP fluorescence quenching using CNL002: 12.48%
Lenti-X 293T cells; 100 nM abt
  YFP fluorescence quenching using ABT-126: −7.61%
Lenti-X 293T cells; 100 nM azd0328
  YFP fluorescence quenching using AZD-0328: 6.26%
Lenti-X 293T cells; 300 nM abt
  YFP fluorescence quenching using ABT-126: 6.55%
Lenti-X 293T cells; 300 nM azd0328
  YFP fluorescence quenching using AZD-0328: 37.98%
Lenti-X 293T cells; 300 nM brd
  YFP fluorescence quenching using TC-5619/Bradanicline: 75.12%
Lenti-X 293T cells; 300 nM fac
  YFP fluorescence quenching using Facinicline: 10.21
Lenti-X 293T cells; 300 nM var, first column
  YFP fluorescence quenching using Varenicline: 78.989
Lenti-X 293T cells; 300 nM var, second column
  YFP fluorescence quenching using Varenicline: 79.21
Lenti-X 293T cells; 500 nM var, first column
  YFP fluorescence quenching using Varenicline: 79.212
Lenti-X 293T cells; 500 nM var, second column
  YFP fluorescence quenching using Varenicline: 79.771
Lenti-X 293T cells; 1 uM CNL001, first column
  YFP fluorescence quenching using CNL001: 81.191%
Lenti-X 293T cells; 1 uM CNL001, second column
  YFP fluorescence quenching using CNL001: 82.385%
Lenti-X 293T cells; 1 uM CNL002
  YFP fluorescence quenching using CNL002: 46.04%
Lenti-X 293T cells; 1 uM abt
  YFP fluorescence quenching using ABT-126: 25.08%
Lenti-X 293T cells; 1 uM tc6987
  YFP fluorescence quenching using TC-6987: −13.32
Lenti-X 293T cells; 1 uM var, first column
  YFP fluorescence quenching using Varenicline: 79.538
Lenti-X 293T cells; 1 uM var, second column
  YFP fluorescence quenching using Varenicline: 80.577
Lenti-X 293T cells; 10 uM tc6987
  YFP fluorescence quenching using TC-6987: 43.71
Lenti-X 293T cells; 30 uM CNL002
  YFP fluorescence quenching using CNL002: 39.82%
Lenti-X 293T cells; 30 uM azd0328
  YFP fluorescence quenching using AZD-0328: 79.31%
Lenti-X 293T cells; 30 uM fac
  YFP fluorescence quenching using Facinicline: 78.24
Lenti-X 293T cells; 500 uM tc6987
  YFP fluorescence quenching using TC-6987: 53.98
Lenti-X 293T cells; TC-6683 30 nM
  percent quench of YFP fluorescence, 30 nM TC-6683: −1.645%
Lenti-X 293T cells; TC-6683 300 nM
  percent quench of YFP fluorescence, 300 nM TC-6683: 3.043%
Lenti-X 293T cells; TC-6683 3 uM
  percent quench of YFP fluorescence, 3 uM TC-6683: 0.082%
Lenti-X 293T cells; TC-6683 30 uM
  percent quench of YFP fluorescence, 30 uM TC-6683: 2.449%
Lenti-X 293T cells; TC-6683 100 uM
  percent quench of YFP fluorescence, 100 uM TC-6683: 10.437%
Lenti-X 293T cells; acetylcholine 10 uM
  percent quench of YFP fluorescence, 10 uM ach: 12.57%
Lenti-X 293T cells; acetylcholine 50 uM
  percent quench of YFP fluorescence, 50 uM ach: −3.46%
Lenti-X 293T cells; acetylcholine 100 uM
  percent quench of YFP fluorescence, 100 uM ach: 12.65%
Lenti-X 293T cells; acetylcholine 300 uM
  percent quench of YFP fluorescence, 300 uM ach: −6.96%
Lenti-X 293T cells; acetylcholine 500 uM
  percent quench of YFP fluorescence, 500 uM ach: −6.77%
Lenti-X 293T cells; acetylcholine 1 mM
  percent quench of YFP fluorescence, 1 mM ach: 19.42%
Lenti-X 293T cells; acetylcholine 3 mM
  percent quench of YFP fluorescence, 3 mM ach: 65.06%
Rat DRG neurons; +TC-5619 @ EC90
  Rheobase Shift; Rat DRG Neurons, +TC-5619 @ EC90: 560 ± 72 pA
Rat DRG neurons; Baseline, no ligand
  Rheobase Shift; Rat DRG Neurons, Baseline: 140 ± 19 pA
